Common to all, as to test: stopped-flow fluorescence
Test [1] concerns the target wild-type calmodulin (His-CaM) (rat, UniProt P0DP29 1-149).
Test [2] deals with C-lobe mutant of calmodulin (CaM34) (rat, UniProt P0DP29 1-149, D93 to alanine | D129 to alanine).
For test [3], the target named is N-lobe mutant of calmodulin (CaM12) (rat, UniProt P0DP29 1-149, D20 to alanine | D56 to alanine).

No end group written: not given here.

For the molecule YSLAAVVLGLVQSLNRQRQKQLLNE-NH2 [AC8-C2b peptide], the binding result in test [1] and in test [2] was “binds” in each case.
For IKPAKRMKFKTVCYLLVQLMHCRKMFKA (C-terminal amide) [AC1-C1b peptide], the binding result in test [1] and in test [3] was “binds” throughout.
For GSRPQRLLWQTAVRHITEQRFIHGH-NH2 [AC8-Nt peptide], the binding result in test [1] and in test [3] was “binds” throughout.

The record behind these values is paper PMC3466776 (Biochemistry, 2012).
